Assay results published in article PMC7613515, “Reading and erasing of the phosphonium analogue of trimethyllysine by epigenetic proteins” (Communications Chemistry, 2022).
Where two headings read alike, the source gives them in different places. Each block holds one molecule with its values, some of them ahead of it. Square brackets hold non-standard residues; d marks the D form. Ends that are not written are not given here. Lys(Me3) = C[N+](C)(C)CCCC[C@H](N)C(=O)O

How the values were obtained:
[1] = target: T1, KDM5APHD3 (JARID1A-PHD3, residues M1489–V1641) (Homo sapiens, UniProt P29375); details: reported, ITC, H3 1-10, cited from earlier work
T1 construct: KDM5APHD3 (JARID1A-PHD3, residues M1489–V1641); made in house; host or cells: E. coli
T1 sequence (P29375 1489-1641): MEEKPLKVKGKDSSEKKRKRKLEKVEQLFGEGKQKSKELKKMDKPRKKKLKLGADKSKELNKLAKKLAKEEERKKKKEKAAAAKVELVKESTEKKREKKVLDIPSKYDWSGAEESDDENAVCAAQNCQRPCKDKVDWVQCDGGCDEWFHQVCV
Description: page 30: Supplementary Table 5 Overview of reported ITC binding values of chromatin binding modules with H3 peptides (K d in µM) with various lysine modification. […] N.D. not determined; N.M: not measured. Modification KDM5A PHD3 TAF3PHD BPTFPHD SGF29TT ...

[2] = target: T2, KDM4ATTD (JMJD2A, Q897-P1011) (Homo sapiens, UniProt O75164); details: reported, ITC, H3 1-10, cited from earlier work
T2 construct: KDM4ATTD (JMJD2A, Q897-P1011); made in house; host or cells: E. coli
T2 sequence (O75164 897-1011): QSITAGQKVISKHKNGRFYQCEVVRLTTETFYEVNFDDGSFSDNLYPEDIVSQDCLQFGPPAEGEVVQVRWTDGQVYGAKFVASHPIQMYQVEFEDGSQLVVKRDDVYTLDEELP
Description: (§1) N.D. not determined; N.M: not measured. Modification KDM5A PHD3 TAF3PHD BPTFPHD SGF29TT ...

SGF29TTD (R115–K293) [3] = target: T3, SGF29TTD (R115–K293) (Homo sapiens, UniProt Q96ES7); details: reported, ITC, H3 1-10, cited from earlier work
T3 construct: SGF29TTD (R115–K293); made in house; host or cells: E. coli
T3 sequence (Q96ES7 115-293): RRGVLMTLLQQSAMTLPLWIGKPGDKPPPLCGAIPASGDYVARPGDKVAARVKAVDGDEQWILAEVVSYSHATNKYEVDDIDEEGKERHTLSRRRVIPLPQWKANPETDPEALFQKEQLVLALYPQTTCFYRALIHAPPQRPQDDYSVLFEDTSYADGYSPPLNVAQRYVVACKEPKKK
Description: as §1

TAF3PHD (R857–K924) [4] = target: T4, TAF3PHD (R857–K924) (Mus musculus, UniProt Q5HZG4); details: reported, ITC, H3 1-10, cited from earlier work
T4 construct: TAF3PHD (R857–K924); made in house; host or cells: E. coli
T4 sequence (Q5HZG4 857-924 limits assumed): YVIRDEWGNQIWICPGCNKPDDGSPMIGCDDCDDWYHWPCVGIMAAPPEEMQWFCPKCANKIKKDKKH
Description: as §1

BPTFPHD (L2583–N2751) = target: T5, BPTFPHD (L2583–N2751) (Homo sapiens, UniProt Q12830); details: reported, ITC, H3 1-10, cited from earlier work
T5 construct: BPTFPHD (L2583–N2751); made in house; host or cells: E. coli

KDM4E = details: reported, shorter H3_7-14K9me3 substrate; cited from earlier work
Description: Reactions were monitored using MALDI-TOF mass spectrometry (Fig. 5b–d). […] Some JmjC KDMs can also catalyse N-methyl arginine demethylation and with appropriately sized N^ε-substitutions some can catalyse forma ...

[5] = target: T1, KDM5APHD3 (JARID1A-PHD3, residues M1489–V1641); experiment: ITC, association of histone H3 peptides with KDM5APHD3; assay type: binding; details: 25 °C, H3 1-10 peptide (350–600 µM) into reader (25–40 µM), Tris (50 mM), NaCl (20 mM), pH 7.5, from 3 to 5 experiments
Description: (§2) We investigated the thermodynamics of association of the H3KP4me3 peptide with five representative human reader domains containing either a PHD zinc finger or TTD, i.e. KDM5APHD3 (JARID1A-PHD3, residues M1489–V1641)[10], TAF3PHD (R857–K924)[22], BPTFPHD (L2583–N2751)[23], SGF29TTD (R115–K293)[24] and KDM4ATTD (JMJD2A, Q897-P1011)[25], selected on the basis of their preference for binding Ν^ε-trimethyllysine over other (non)methylation marks (Kme0 < Kme1 < Kme2 < Kme3), and their domain and aromatic cage diversity. The recombinant readers were produced in E. coli following reported procedures. Isothermal titration calorimetric (ITC) analyses were used to determine the dissociation constant (Kd), the Gibbs free energy of binding (ΔG°), the enthalpy of binding (ΔH°), and the entropy of binding (ΔS°). […] (Table 1, Fig. 2, Supplementary Fig. 1).
(§3) The following purified reader domains: TAF3PHD (R857-K924), KDM5APHD3 (JARID1A, M1489-V1641), BPTFPHD (L2583-N2751), KDM4ATTD (JMJD2A, Q897-P1011) and SGF29TTD (R115-K293) were prepared as reported[10],[22]–[26]. The histone lysine demethylase were produced and purified to high purity via reported procedures KDM3A (JMJD1A, T515-S1317)[41], KDM4AJmjC[39] (JMJD2A, M1-L359), KDM4EJmjC (JMJD2E, M1–Q337)[34] and KDM7B[40] (PHF8, M37-N483 [NP_001171]). KDM5DJmjC was produced using an N-terminal hexa-His tagged KDM4D (KDM4DM1-L358) DNA construct, transformed into BL21(DE3) competent cells for recombinant protein production. Colonies were used to inoculate of LB media (50 mL) containing kanamycin (50 µg·mL^−1) and chloramphenicol (34 µg·mL^−1), which was placed in a 37 °C shaker overnight. The starter culture (10 mL) was used to inoculate TB media (6 × 1 L) containing kanamycin (50 µg·mL^−1) in 2 L baffled shaker flasks. After reaching an of OD600 of ~0.8, the temperature was reduced to 18 °C; at OD600 ~0.9 the cells were induced by the IPTG (0.5 mM) addition. After shaking overnight, the culture was centrifuged (5000 rpm, 10 mins), the media was decanted, and the cell pellet was suspended in Lysis Buffer [HEPES (50 mM), NaCl (500 mM), imidazole (20 mM), glycerol (5%) and TCEP (0.5 mM) in water (pH 7.4)]. The suspension was lysed by passaging through a high-pressure cell breaker (Avestin – EmulsiFlex-C5) for three rounds. The lysate was cleared by centrifugation (60 minutes, 36,000 × g, 4 °C), then loaded onto a Ni NTA gravity column. […]
(§4) ITC studies followed a reported procedure. […] Histone peptide titrations were performed with the same reader batches. Solutions of the reader in buffer (25–40 µM) and of the histone H3 peptide (350–600 µM) in buffer were prepared. […] Heats of dilution for histone peptides determined in control experiments were subtracted from the titration binding data. […]

TAF3PHD (R857–K924) [6] = target: T4, TAF3PHD (R857–K924); experiment: ITC, association of histone H3 peptides with TAF3PHD; assay type: binding, human; details: 25 °C, H3 1-10 peptide (350–600 µM) into reader (25–40 µM), Tris (50 mM), pH 7.5, from 3 to 5 experiments
Description: as §2, §3, §4

SGF29TTD (R115–K293) [7] = target: T3, SGF29TTD (R115–K293); experiment: ITC, association of histone H3 peptides with SGF29TTD; assay type: binding; details: 25 °C, H3 1-10 peptide (350–600 µM) into reader (25–40 µM), pH 7.5, from 3 to 5 experiments
Description: as §2
(§5) The following purified reader domains: TAF3PHD (R857-K924), KDM5APHD3 (JARID1A, M1489-V1641), BPTFPHD (L2583-N2751), KDM4ATTD (JMJD2A, Q897-P1011) and SGF29TTD (R115-K293) were prepared as reported[10],[22]–[26]. The histone lysine demethylase were produced and purified to high purity via reported procedures KDM3A (JMJD1A, T515-S1317)[41], KDM4AJmjC[39] (JMJD2A, M1-L359), KDM4EJmjC (JMJD2E, M1–Q337)[34] and KDM7B[40] (PHF8, M37-N483 [NP_001171]). KDM5DJmjC was produced using an N-terminal hexa-His tagged KDM4D (KDM4DM1-L358) DNA construct, transformed into BL21(DE3) competent cells for recombinant protein production. Colonies were used to inoculate of LB media (50 mL) containing kanamycin (50 µg·mL^−1) and chloramphenicol (34 µg·mL^−1), which was placed in a 37 °C shaker overnight. The starter culture (10 mL) was used to inoculate TB media (6 × 1 L) containing kanamycin (50 µg·mL^−1) in 2 L baffled shaker flasks. After reaching an of OD600 of ~0.8, the temperature was reduced to 18 °C; at OD600 ~0.9 the cells were induced by the IPTG (0.5 mM) addition. After shaking overnight, the culture was centrifuged (5000 rpm, 10 mins), the media was decanted, and the cell pellet was suspended in Lysis Buffer [HEPES (50 mM), NaCl (500 mM), imidazole (20 mM), glycerol (5%) and TCEP (0.5 mM) in water (pH 7.4)]. The suspension was lysed by passaging through a high-pressure cell breaker (Avestin – EmulsiFlex-C5) for three rounds. The lysate was cleared by centrifugation (60 minutes, 36,000 × g, 4 °C), then loaded onto a Ni NTA gravity column. After extensive rinsing of the Ni-NTA gravity column with lysis buffer, the His-tagged protein was eluted in lysis buffer containing 300 mM imidazole. The eluted protein was concentrated and subjected to gel filtration chromatography using an AKTA Xpress system, an S200 16/600 gel filtration column, and GF buffer [HEPES (50 mM), NaCl (150 mM), glycerol (5%) and TCEP (0.5 mM) in water (pH 7.4)]. The protein identity was verified by LC-MS (ESI-TOF) observing a mass of 43759.7 Da, in accord with the predicted mass of 43751.6 Da.
as §4, with “procedure. The buffer used corresponded to that used in the final protein purification step.” for “procedure.”

[8] = target: T2, KDM4ATTD (JMJD2A, Q897-P1011); experiment: ITC, association of histone H3 peptides with KDM4ATTD; assay type: binding; details: 25 °C, H3 1-10 peptide (350–600 µM) into reader (25–40 µM), Tris (50 mM), pH 7.5, from 3 to 5 experiments
Description: as §2, §5
ITC studies followed a reported procedure. The buffer used corresponded to that used in the final protein purification step. Briefly, TAF3PHD and KDM4ATTD: [Tris (50 mM) in water (pH 7.5)]; KDM5APHD3 and BTPFPHD: [Tris (50 mM), NaCl (20 mM) in water (pH 7.5)]; [Tris (25 mM), NaCl (50 mM), 1,4-dithiothreitol (1.0 mM) in water (pH 7.5)]. Experiments were conducted using ITC200 automated (GE Healthcare Life Sciences, USA) instrument at 25 °C. Histone peptide titrations were performed with the same reader batches. Solutions of the reader in buffer (25–40 µM) and of the histone H3 peptide (350–600 µM) in buffer were prepared. The prepared solutions were plated into a 96-well plate and inserted into the instrument for analysis. Experiments were performed according to manufacturer’s default settings: Plate pre-rinse syringe clean. A total of 19 injections were performed; each experiment was repeated 3–5 times. Heats of dilution for histone peptides determined in control experiments were subtracted from the titration binding data. […]

[9] = cited from earlier work
Description: Some JmjC KDMs can also catalyse N-methyl arginine demethylation and with appropriately sized N^ε-substitutions some can catalyse forma ...

Molecule: K4Cme3: H3 1-10 peptide with K4Cme3 modification, Hintzen et al. (ARTCQTARKS; Cys4 S-alkylated with 2-(trimethylammonio)ethyl = trimethylthialysine, a cysteine-derived trimethyllysine analogue (identity inferred from the cited Hintzen et al. work))
Kd ([1]; ref Hintzen et al. (SI ref 11)): 0.15 µM | Kd ([2]; ref Hintzen et al. (SI ref 11)): 3.1 µM | Kd (SGF29TTD (R115–K293) [3]; ref Hintzen et al. (SI ref 11)): 6.1 µM | Kd (TAF3PHD (R857–K924) [4]; ref Hintzen et al. (SI ref 11)): 0.042 µM

Molecule: L-K4me3: H3 1-10 peptide with L-K4me3 modification, Belle et al.
Kd ([1]; ref Belle et al. (SI ref 8)): 0.11 µM | Kd ([2]; ref Belle et al. (SI ref 8)): 1.1 µM | Kd (SGF29TTD (R115–K293) [3]; ref Belle et al. (SI ref 8)): 1.7 µM | Kd (TAF3PHD (R857–K924) [4]; ref Belle et al. (SI ref 8)): 0.082 µM | Kd (BPTFPHD (L2583–N2751); ref Belle et al. (SI ref 8)): 0.44 µM

Molecule: H3_7-14K9me3: shorter H3_7-14K9me3 substrate (AR[Lys(Me3)]STGGK; UniProt P68431 8-15, looked up, fragment)
Km (KDM4E): 21.3 µM | kcat (KDM4E): 0.0767 s⁻¹

Kd [5]: 0.52 µM | Kd (TAF3PHD (R857–K924) [6]): 0.11 µM | Kd (SGF29TTD (R115–K293) [7]): 3.2 µM | Kd [8]: 3.5 µM
Molecule: C[C@H](N)C(=O)N[C@@H](CCCNC(=N)N)C(=O)N[C@H](C(=O)N[C@@H](CCCC[N+](C)(C)C)C(=O)N[C@@H](CCC(N)=O)C(=O)N[C@H](C(=O)N[C@@H](C)C(=O)N[C@@H](CCCNC(=N)N)C(=O)N[C@@H](CCCCN)C(=O)N[C@@H](CO)C(N)=O)[C@@H](C)O)[C@@H](C)O [H3K4me3, reference compound]

Molecule: K4G: K4me3 in H3K4me3 substituted for glycine (ARTGQTARKS)
Kd ([1]; ref Kamps et al. (SI ref 9)): 88 µM | Kd (TAF3PHD (R857–K924) [4]; ref Kamps et al. (SI ref 9)): 36 µM

Molecule: C[N+](C)(C)C [^+Nme4, reference compound]
volume [9]: 105 Å^3

Molecule: K4Cme3: H3 1-10 peptide with K4Cme3 modification, Hintzen et al.
Kd (BPTFPHD (L2583–N2751); ref Hintzen et al. (SI ref 11)): 3.8 µM

Molecule: C[P+](C)(C)C.[I-] [^+Pme4, reference compound]
volume [9]: 115 Å^3
